Measurements taken from patent publication US20090118185A1 (UNIVERSITY OF ROCHESTER, published 2009).
Positions count from the first letter of the chain named.

Experiments:
[1] = target: T1, 562(P4-P3′)336 factor VIII mutant (procofactor)
T1 chain 1: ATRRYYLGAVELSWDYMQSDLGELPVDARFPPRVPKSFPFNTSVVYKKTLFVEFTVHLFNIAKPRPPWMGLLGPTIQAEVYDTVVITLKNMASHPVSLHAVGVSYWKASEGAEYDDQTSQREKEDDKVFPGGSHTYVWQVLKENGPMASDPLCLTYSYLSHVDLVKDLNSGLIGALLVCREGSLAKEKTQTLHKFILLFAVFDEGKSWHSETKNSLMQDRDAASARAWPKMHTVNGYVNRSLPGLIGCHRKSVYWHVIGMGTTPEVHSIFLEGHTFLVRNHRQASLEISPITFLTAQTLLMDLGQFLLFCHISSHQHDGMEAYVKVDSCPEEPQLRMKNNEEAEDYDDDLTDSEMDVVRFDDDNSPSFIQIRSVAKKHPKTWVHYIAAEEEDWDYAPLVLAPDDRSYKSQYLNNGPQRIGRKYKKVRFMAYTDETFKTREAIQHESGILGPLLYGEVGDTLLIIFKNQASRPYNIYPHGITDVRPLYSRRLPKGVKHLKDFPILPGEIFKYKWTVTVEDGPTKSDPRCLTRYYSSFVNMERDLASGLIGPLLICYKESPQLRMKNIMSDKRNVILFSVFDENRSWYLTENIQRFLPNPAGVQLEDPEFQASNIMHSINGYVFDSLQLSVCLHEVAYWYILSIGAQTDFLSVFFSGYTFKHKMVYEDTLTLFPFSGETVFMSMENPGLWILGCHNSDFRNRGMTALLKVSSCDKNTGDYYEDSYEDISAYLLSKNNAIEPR
T1 chain 2: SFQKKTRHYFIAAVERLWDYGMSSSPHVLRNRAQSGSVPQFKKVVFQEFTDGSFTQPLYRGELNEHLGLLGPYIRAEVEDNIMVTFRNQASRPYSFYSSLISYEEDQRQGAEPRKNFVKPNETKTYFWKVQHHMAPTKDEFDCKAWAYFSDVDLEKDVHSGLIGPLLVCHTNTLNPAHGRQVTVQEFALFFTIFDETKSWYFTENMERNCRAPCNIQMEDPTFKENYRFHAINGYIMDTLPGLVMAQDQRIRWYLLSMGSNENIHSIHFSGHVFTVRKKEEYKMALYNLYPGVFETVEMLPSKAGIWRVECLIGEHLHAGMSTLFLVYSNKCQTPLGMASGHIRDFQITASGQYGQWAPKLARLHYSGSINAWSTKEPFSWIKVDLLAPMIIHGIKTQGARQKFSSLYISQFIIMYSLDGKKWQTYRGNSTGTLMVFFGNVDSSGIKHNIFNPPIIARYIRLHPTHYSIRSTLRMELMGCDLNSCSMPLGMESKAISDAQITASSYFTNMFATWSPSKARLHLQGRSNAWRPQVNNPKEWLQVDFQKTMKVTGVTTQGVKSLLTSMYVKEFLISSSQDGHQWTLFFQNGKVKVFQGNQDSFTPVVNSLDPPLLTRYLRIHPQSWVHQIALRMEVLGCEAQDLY

[2] = target: T2, 562(P4-P2)336 factor VIIIa mutant
T2 chain 1: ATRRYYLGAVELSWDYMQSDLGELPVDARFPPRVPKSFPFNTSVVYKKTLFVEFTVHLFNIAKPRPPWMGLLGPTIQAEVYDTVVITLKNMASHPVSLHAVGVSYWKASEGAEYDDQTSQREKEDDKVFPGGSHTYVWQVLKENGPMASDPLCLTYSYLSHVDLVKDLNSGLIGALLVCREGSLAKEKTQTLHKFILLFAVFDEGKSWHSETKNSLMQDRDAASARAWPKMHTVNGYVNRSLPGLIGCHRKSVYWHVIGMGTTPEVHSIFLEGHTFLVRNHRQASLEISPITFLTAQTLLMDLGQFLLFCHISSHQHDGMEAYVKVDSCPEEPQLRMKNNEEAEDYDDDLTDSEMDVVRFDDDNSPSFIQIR
T2 chain 2: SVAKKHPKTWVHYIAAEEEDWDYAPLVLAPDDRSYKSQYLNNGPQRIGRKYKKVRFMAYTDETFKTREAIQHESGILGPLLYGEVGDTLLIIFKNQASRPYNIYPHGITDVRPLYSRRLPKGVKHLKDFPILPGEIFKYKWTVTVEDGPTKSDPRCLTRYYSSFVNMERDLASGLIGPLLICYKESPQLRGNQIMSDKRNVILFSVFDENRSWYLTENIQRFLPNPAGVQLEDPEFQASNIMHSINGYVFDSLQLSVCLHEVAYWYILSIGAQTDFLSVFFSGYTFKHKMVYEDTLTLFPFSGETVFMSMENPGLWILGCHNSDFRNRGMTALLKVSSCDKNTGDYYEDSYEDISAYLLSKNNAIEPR
T2 chain 3: T1 chain 2

[3] = target: T3, 562(P4-P3′)336 factor VIIIa mutant
T3 chain 1: T2 chain 1
T3 chain 2: T2 chain 2 with G191M, N192K, Q193N
T3 chain 3: T1 chain 2

B1: human activated protein C (protein)
chain 1: ANSFLEELRHSSLERECIEEICDFEEAKEIFQNVDDTLAFWSKHVDGDQCLVLPLEHPCASLCCGHGTCIDGIGSFSCDCRSGWEGRFCQREVSFLNCSLDNGGCTHYCLEEVGWRRCSCAPGYKLGDDLLQCHPAVKFPCGRPWKRMEKKRSHL
chain 2: LIDGKMTRRGDSPWQVVLLDSKKKLACGAVLIHPSWVLTAAHCMDESKKLLVRLGEYDLRRWEKWELDLDIKEVFVHPNYSKSTTDNDIALLHLAQPATLSQTIVPICLPDSGLAERELNQAGQETLVTGWGYHSSREKEAKRNRTFVLNFIKIPVVPHNECSEVMSNMVSENMLCAGILGDRQDACEGDSGGPMVASFHGTWFLVGLVSWGEGCGLLHNYGVYTKVSRYLDWIHGHIRDKEAPQKSWAP
B1 gave an A2 Cleavage (nM A2/min/nM APC) (nM A2/min/nM APC) [1] of 2.7, an A1 Cleavage (nM A1/min/nM APC) (nM A1/min/nM APC) [2] of 7.4 and an A2 Cleavage (nM A2/min/nM APC) (nM A2/min/nM APC) [2] of 0.7. For the same protein, the A1 Cleavage (nM A1/min/nM APC) (nM A1/min/nM APC) [3] was 7.3, the A2 Cleavage (nM A2/min/nM APC) (nM A2/min/nM APC) [3] was 1.9 and the “fold increase of A2 subunit cleavage rate” value [3] was “the rate of A2 subunit cleavage for 562(P4-P3′)336 mutant was increased 4 fold”.
